According to US20230020729A1 (Memorial Sloan Kettering, published 2023):

Molecular target: T1, human Fc Receptor-Like 5 (FcRL5), full length, expressed on cells (human, UniProt Q96RD9 16-977)
T1 construct: also called CD307e; IRTA2
T1 sequence: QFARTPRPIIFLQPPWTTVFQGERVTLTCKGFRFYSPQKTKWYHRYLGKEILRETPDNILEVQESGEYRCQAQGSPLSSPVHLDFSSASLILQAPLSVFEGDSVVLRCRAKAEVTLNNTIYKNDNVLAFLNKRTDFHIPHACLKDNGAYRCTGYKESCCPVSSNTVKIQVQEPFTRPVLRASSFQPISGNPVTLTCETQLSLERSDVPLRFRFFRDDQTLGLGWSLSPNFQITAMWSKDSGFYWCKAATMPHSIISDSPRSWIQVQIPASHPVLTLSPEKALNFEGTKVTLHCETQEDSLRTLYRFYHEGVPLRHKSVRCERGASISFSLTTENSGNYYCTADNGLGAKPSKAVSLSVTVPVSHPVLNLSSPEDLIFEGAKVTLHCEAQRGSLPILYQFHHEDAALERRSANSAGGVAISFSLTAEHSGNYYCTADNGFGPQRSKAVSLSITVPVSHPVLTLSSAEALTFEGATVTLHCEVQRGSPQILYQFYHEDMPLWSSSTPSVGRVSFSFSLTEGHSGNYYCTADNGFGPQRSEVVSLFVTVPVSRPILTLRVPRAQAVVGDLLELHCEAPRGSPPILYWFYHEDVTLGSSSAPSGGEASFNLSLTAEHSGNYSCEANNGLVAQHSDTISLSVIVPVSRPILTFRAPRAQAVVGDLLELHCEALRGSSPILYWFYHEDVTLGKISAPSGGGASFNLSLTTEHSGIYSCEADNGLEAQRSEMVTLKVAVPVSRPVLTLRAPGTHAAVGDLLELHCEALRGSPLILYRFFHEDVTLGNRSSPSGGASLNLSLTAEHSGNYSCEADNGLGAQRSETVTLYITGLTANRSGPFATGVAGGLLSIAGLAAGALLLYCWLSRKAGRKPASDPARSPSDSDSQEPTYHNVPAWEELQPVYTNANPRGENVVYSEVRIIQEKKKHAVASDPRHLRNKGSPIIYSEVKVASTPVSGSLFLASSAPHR
Test: scFv phage: ELISA on His-tag FcRL5, flow cytometry on FcRL5-overexpressing 3T3 and Raji cells

B1: ET200-044 scFv (scFv)
scFv: QSVLTQPPSVSVSPGQTATIACSGHKLGDKYASWYQQKSGQSPVLIIYQDNKRPSGIPERFSGSNSGNTATLTISGTQALDEADYYCQAWDSSTYVAFGGGTKLTVLGSRGGGGSGGGGSGGGGSLEMAQVQLQESGPGLVKPSETLSLTCVVSGGSISSSNWWSWVRQPPGKGLEWIGEIYHSGSPNYNPSLKSRVTISVDKSKNQFSLKLSSVTAADTAVYYCARMTTHTFGYDAWGQGTLVTVSS
notes: VL-linker-VH; screened as scFv phage clone
binding result: binds

B2: ET200-079 scFv (scFv)
scFv: SYELTQPPSASGTPGQRVTISCSGSSSNIGSNYVYWYQQLPGTAPKLFIYRNNQRPSGVPDRFSGSKSGTSASLAISGLRSEDEADYYCAAWDDSLSGYLFGTGTKVTVLGSRGGGGSGGGGSGGGGSLEMAEVQLVESGGGLVQPGRSLRLSCAASGFTFDDYAMHWVRQAPGKGLEWVSGISWNSGSIGYADSVKGRFTISRDNAKNSLYLQMNSLRAEDTALYYCANGDSNYYYGMDVWGQGTTVTVSS
notes: as for B1
binding result: binds

B3: ET200-045 scFv (scFv)
scFv: QPVLTQPPSVSVAPGKTATITCGGNNIGSESVHWYHQKPGQAPVLVIYDDAGRPSGIPERFTGSNSGNTATLTISRVEAGDEADYYCQVWDRNSAQFVFGPGTKVTVLGSRGGGGSGGGGSGGGGSLEMAEVQLVQSGAEVKKPGASVKVSCKASGYTFTSYGISWVRQAPGQGLEWMGWISAYNGNTNYAQKLQGRVTMTTDTSTSTAYMELRSLRSDDTAVYYCARGVHLDWWGQGTLVTVSS
notes: as for B1
binding result: binds

B4: ET200-105 scFv (scFv)
scFv: SYVLTQPPSVSVSPGQTASITCSGDRLTNKYVSWYQQKPGQSPVLVIYEDAKRPSGIPARFSGSNSGNTATLTISGTQAMDESEYYCQAWDSSVVVFGGGTKLTVLGSRGGGGSGGGGSGGGGSLEMAEVQLVESGGGLVQPGRSLRLSCAASGFTFDDYAMHWVRQAPGKGLEWVSGISWNSGSIGYADSVKGRFTISRDNAKNSLYLQMNSLRDEDTALYYCAKDRGGGVIVKDAFDIWGQGTMVTVSS
notes: as for B1
binding result: binds

B5: ET200-106 scFv (scFv)
scFv: SYELTQPPAASGTPGQRVTISCSGGVSNIGSGALNWYQQLPGTAPKLLIYSYNQRPSGVSDRFSGSRSATSASLAISGLQSEDEADYYCATWDDSVNGWVFGGGTKLTVLGSRGGGGSGGGGSGGGGSLEMAEVQLVESGAEVKKPGDSVKVSCKPSGYNFLNYGINWVRQAPGQGLEWMGWISTYTGNTNYAQKLQGRVTFTTDTSTSTAYMEMRSLRSDDTAVYYCARQQGGGWYDVWGQGTLVTVSS
notes: as for B1
binding result: binds

B6: ET200-007 scFv (scFv)
scFv: SYVLTQPLSVSVAPGKTARITCGGNNIGSKTVHWYQQKPGQAPVLVIYYDSDRPSGIPERFSGSNSGNTATLTISRVEAGDEADYYCQVWDSSSDHRVFGGGTKLTVLGSRGGGGSGGGGSGGGGSLEMAQVQLQESGPGLVKPSETLSLTCNVSGYSISSGYFWGWIRQPPGKGLEWIGSIYHSRSTYYNPSLKSRVTISVDTSKNQFSLKLNSVTAADTAVYYCARGYGYFDYWGQGTLVTVSS
notes: as for B1
binding result: binds

B7: ET200-098 scFv (scFv)
scFv: QPVLTQPPSVSKGLRQTATLTCTGNSNNVGNLGVAWLQQHQGHPPKLLSYRNNNRPSGISERLSASRSGNTASLTITGLQPEDEADYYCSAWDSSLSAWVFGGGTKLTVLGSRGGGGSGGGGSGGGGSLEMAEVQLVESGGVVVQPGGSLRLSCAASGFTFDDYAMHWVRQAPGKGLEWVSLINWDGGSTYYADSVKGRFTISRDNSKNSLYLQMNSLRAEDTALYYCAKGMGLRAFDYWGQGTLVTVSS
notes: as for B1
binding result: binds

B8: ET200-107 scFv (scFv)
scFv: QSVVTQPPSVSAAPGEKVTISCSGSNFNVGNNDVSWYQQLPGAAPKLLIYDNNKRPSGIPDRFSGSKSGTSATLDITGLHSDDEADYYCGTWDSSLNTGGVFGTGTKVTVLGSRGGGGSGGGGSGGGGSLEMAEVQLVQSGAEVKKPGASVKVSCKASGYTFTSYTISWVRQAPGQGLEWMGWISTYNGLTNYAQNLQGRVTMTTDTFTTTAYMELRSLRSDDTAVYYCVREGSPDYGDFASFDYWGQGTLVTVSS
notes: as for B1
binding result: binds

B9: ET200-101 scFv (scFv)
scFv: QAVLTQPPSASGAPGQRVTVSCSGSNSNIGSNYVNWYQQFPGTAPKLLMYSSSQRPSGVPDRFSGSKSGTSASLAISGLHSEDEADYYCATWDDSLNAWVFGGGTKLTVLGSRGGGGSGGGGSGGGGSLEMAEVQLVQSGAEVRKPGASVKVSCKTSGYTFTWYAIHWVRQAPGQRLEWMGWINAGSGNTKYSQKFQGRVTLTRDTSASTAYMELSSLRSDDTAVYYCARPNNYGSGGDVFDIWGQGTMVTVSS
notes: as for B1
binding result: binds

B10: ET200-081 scFv (scFv)
scFv: QSALTQPASVSGSPGQSITISCTGTSSDIGGYNYVSWYQQHPGKAPKLMIYDVSNRPSGVSNRFSGSKSGNTASLTISGLQAEDEADYYCISYTRTWNPYVFGSGTKVTVLGSRGGGGSGGGGSGGGGSLEMAEVQLVQSGGGVVQPGGSLRLSCAASGFTFDDYAMHWVRQAPGKGLEWVSLISGDGGSTYYADSVKGRFTISRDNSKNSLYLQMNSLRTEDTALYYCAKDRAAAGYYYYGMDVWGQGTTVTVSS
notes: as for B1
binding result: binds

B11: ET200-097 scFv (scFv)
scFv: LPVLTQPPSVSVSPGQTAIITCSGDKLGEKYVSWYQQKPGQSPVLVIDQDTRRPSGIPERFSGSNSGTTATLTISGTQAMDEADYYCQAWDRGVVFGGGTKLTVLGSRGGGGSGGGGSGGGGSLEMAEVQLVESGGDLVQPGRSLRLSCAASGFTFNDYAMHWVRQAPGKGLEWVSGISWSGNNIGYADSVKGRFTISRDNAKNSLYLQMNSLRAEDTALYYCAKDSIRYGITWGGFDYWGQGTLVTVSS
notes: as for B1
binding result: binds

B12: ET200-099 scFv (scFv)
scFv: QSVLTQPPSASGTPGQRVTISCSGSSSNIGSNTVNWYQQLPGTAPKLLIYSNDQRPSGVPDRFSGSKSGTSASLAISGLQSEDEADYYCASWDDSLNGRYVFGTGTKVTVLGSRGGGGSGGGGSGGGGSLEMAQVQLVQSGAEVRKPGASVKVSCKTSGYTFSWYAIHWVRQAPGQRLEWMGWINAGNGNTKYSQKFQGRVSLTRDTSASTAYMELSSLRSDDTAVYYCARPDNYGSGGDVFDIWGQGTMVTVSS
notes: as for B1
binding result: binds

B13: ET200-102 scFv (scFv)
scFv: QSVVTQPPSVSAAPGQKVTISCSGSSSNIGNNYVSWYQQLPGTAPKLLIYDNNKRPSGIPDRFSGSKSGTSATLGITGLQTGDEADYYCGTWDSSLSAYVFGTGTKVTVLGSRGGGGSGGGGSGGGGSLEMAQVQLVQSGAEVKKPGASVKVSCKASGYTFTNYALHWVRQAPGQGLEWMAWINGGNGNTKYSQNFQGRVTITRDTSASTAYMELSSLRSEDTAVYYCAKPEETAGTIHFDYWGQGTPVTVSS
notes: as for B1
binding result: binds

B14: ET200-069 scFv (scFv)
scFv: QSVVTQPPSASGTPGQRVTISCSGSSSNIGSNYVYWYQQLPGTAPKLLIYSNNQRPSGVPDRFSGSKSGTSASLAISGLRSEDEADYYCAAWDDSLSGYVFGTGTKLTVLGSRGGGGSGGGGSGGGGSLEMAQVQLQQWGAGLLKPSETLSLTCAVYGGSFSGYYWSWIRQPPGKGLEWIGEINHSGSTNYNPSLKSRVTISVDTSKNQFSLKLSSVTAADTAVYYCARLYEGGYHGWGSWLSSDSWGQGTLVTVSS
notes: VL-linker-VH; screened as scFv phage clone; also called ET200-69
binding result: binds

B15: ET200-103 scFv (scFv)
scFv: QAVLTQPHSVSESPGKTVTISCTRSSGSIASNYVQWYQQRPGSAPTTVIYEDNQRPSGVPDRFSGSIDSSSNSASLTISGLKTEDEADYYCQSYDSTITVFGGGTKLTVLGSRGGGGSGGGGSGGGGSLEMAQVQLVQSGAEVKKPGSSVKVSCKASGGTFSSYAISWVRQAPGQGLEWMGGIIPIFGTANYAQKFQGRVTITADESTSTAYMELSSLRSEDTAVYYCAGEGYYDSSGYSNGDAFDIWGQGTMVTVSS
notes: as for B1
binding result: binds

B16: ET200-100 scFv (scFv)
scFv: NFMLTQPHSVSESPGKTVTISCTRSSGSIASNFVQWYQQRPGSAPTPMIYEDNNRPPGVPDRFSASVDSSSNSASLTISGLKTEDEADYYCQSYDTSNVVFGGGTKLTVLGSRGGGGSGGGGSGGGGSLEMAEVQLVESGGGLVQPGGSLRLSCAASGFTFSSYEMNWVRQAPGKGLEWVSYISSSGSTIYYADSVKGRFTISRDNAKNSLYLQMNSLRAEDTAVYYCARWDYGMDVWGQGTTVTVSS
notes: as for B1
binding result: binds

B17: ET200-104 scFv (scFv)
scFv: NFMLTQPHSVSESPGKTVTISCTRSSGSIASNYVQWYQQRPGSAPTTVIYEDNQRPSGVPDRFSGSIDSSSNSASLTISGLKTEDEADYYCQSYDSSNVVFGGGTKVTVLGSRGGGGSGGGGSGGGGSLEMAEVQLVESGGGLVQPGGSLRLSCAASGFTFSSYEMNWVRQAPGKGLEWVSYISSSGSTIYYADSVKGRFTISRDNAKNSLYLQMNSLRAEDTAVYYCARWDYGMDVWGQGTTVTVSS
notes: as for B1
binding result: binds
